{"source": "patent US20240239915A1", "about": "(Zymeworks, published 2024)", "key": {"[1]": {"target": "T1, human FcRn (human neonatal Fc receptor large subunit p51 and beta2-microglobulin), biotinylated (human, UniProt P55899 24-297; P61769 21-119, biotinylated (site not stated))", "T1 sequence (P55899 24-297 limits assumed, chain 1 of 2)": "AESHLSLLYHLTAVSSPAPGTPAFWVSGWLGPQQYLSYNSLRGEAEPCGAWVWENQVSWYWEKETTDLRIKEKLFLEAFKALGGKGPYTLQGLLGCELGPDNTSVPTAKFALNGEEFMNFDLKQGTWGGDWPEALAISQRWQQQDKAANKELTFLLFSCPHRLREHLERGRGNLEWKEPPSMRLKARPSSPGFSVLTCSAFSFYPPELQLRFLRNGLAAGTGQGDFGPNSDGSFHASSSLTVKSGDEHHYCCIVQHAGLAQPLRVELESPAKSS", "T1 sequence (P61769 21-119 limits assumed, chain 2 of 2)": "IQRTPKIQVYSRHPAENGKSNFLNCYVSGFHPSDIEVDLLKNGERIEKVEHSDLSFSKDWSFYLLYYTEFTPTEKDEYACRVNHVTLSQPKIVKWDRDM", "experiment": "BLI (Octet RED384), biotinylated FcRn on streptavidin biosensor, binding at pH 6.0, dissociation at pH 7.4"}, "[2]": {"target": "T1, human FcRn (human neonatal Fc receptor …)", "experiment": "BLI (Octet RED384), biotinylated FcRn on streptavidin biosensor, binding and dissociation at pH 6.0"}, "[3]": {"target": "T2, Recombinant Cynomolgus Fc gamma RIIB protein (R&D Systems), His-tagged (cynomolgus)", "T2 construct": "also called cynomolgus FcγRIIb; cFcγRIIb", "T2 chain": "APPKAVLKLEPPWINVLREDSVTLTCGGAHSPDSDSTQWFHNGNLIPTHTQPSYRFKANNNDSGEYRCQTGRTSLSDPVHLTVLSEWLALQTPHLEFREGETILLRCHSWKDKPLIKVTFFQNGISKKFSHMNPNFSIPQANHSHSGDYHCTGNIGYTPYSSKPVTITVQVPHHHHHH", "experiment": "SPR (Biacore T200); receptor immobilized directly on CM5 chip, antibody as analyte at 4.7 µM"}, "[4]": {"target": "T3, Recombinant Cynomolgus Fc gamma RIIA/CD32a Protein (R&D Systems), His-tagged (cynomolgus)", "T3 construct": "also called cynomolgus FcγRIIa; cFcγRIIa", "T3 chain": "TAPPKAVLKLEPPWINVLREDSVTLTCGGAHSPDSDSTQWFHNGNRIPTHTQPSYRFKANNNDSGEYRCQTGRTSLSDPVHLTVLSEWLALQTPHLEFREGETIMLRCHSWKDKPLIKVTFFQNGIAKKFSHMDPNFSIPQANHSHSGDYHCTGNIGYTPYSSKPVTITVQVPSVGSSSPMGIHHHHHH", "experiment": "SPR (Biacore T200); receptor immobilized directly on CM5 chip, antibody as analyte at 4.7 µM"}, "[5]": {"target": "T4, Recombinant Cynomolgus Fc gamma RIII/CD16 Protein (R&D Systems), His-tagged (cynomolgus, UniProt Q8SPW2 17-208)", "T4 construct": "also called cynomolgus FcγRIII; cFcγRIII", "T4 chain": "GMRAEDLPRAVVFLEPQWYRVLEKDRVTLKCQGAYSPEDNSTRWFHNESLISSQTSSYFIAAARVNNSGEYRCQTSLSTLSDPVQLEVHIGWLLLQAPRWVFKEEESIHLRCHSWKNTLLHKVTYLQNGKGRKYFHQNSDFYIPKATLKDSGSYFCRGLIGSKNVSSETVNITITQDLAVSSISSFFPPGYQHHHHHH", "experiment": "SPR (Biacore T200); receptor immobilized directly on CM5 chip, antibody as analyte at 4.7 µM"}, "[6]": {"target": "T5, Recombinant Human Fc gamma RIIIA/CD16a protein (R&D Systems), His-tagged (human, UniProt P08637 17-208)", "T5 construct": "also called human FcγRIIIa; hFcγRIIIa", "T5 sequence (P08637 other isoform, or with tags, fused parts or gaps)": "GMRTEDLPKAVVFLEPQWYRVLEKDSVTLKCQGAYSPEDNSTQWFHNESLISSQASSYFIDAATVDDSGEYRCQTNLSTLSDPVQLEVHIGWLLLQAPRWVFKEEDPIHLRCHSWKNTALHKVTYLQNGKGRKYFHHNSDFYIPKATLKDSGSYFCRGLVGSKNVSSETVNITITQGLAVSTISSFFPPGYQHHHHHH", "experiment": "SPR (Biacore T200); receptor immobilized directly on CM5 chip, antibody as analyte at 4.7 µM"}, "[7]": {"target": "T6, Recombinant Human Fc gamma RIIIA/CD16a (V176F) Protein (R&D Systems), His-tagged (human, UniProt P08637 17-208)", "T6 construct": "no further substitution applied; also called human FcγRIIIa (V176F); hFcγRIIIa (V176F)", "T6 sequence (P08637 other isoform, or with tags, fused parts or gaps V176F V176F)": "as the sequence (P08637 other isoform, or with tags, fused parts or gaps) above, with V160F counted along it", "experiment": "SPR (Biacore T200); receptor immobilized directly on CM5 chip, antibody as analyte at 4.7 µM"}, "[8]": {"target": "T7, Recombinant Human Fc gamma RIIA/CD32a (H167) Protein (R&D Systems), His-tagged (human, UniProt P12318 34-218)", "T7 construct": "also called human FcγRIIa (H167); hFcγRIIa (H167)", "T7 sequence": "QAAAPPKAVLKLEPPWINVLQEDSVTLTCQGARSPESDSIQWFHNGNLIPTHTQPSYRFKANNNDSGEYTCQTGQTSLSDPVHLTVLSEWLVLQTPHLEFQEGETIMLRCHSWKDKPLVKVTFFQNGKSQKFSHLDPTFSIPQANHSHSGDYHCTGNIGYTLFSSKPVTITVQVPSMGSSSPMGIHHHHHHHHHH", "experiment": "SPR (Biacore T200); receptor immobilized directly on CM5 chip, antibody as analyte at 4.7 µM"}, "[9]": {"target": "T8, Recombinant Human Fc gamma RIIIB/CD16b Protein (R&D Systems), His-tagged (human, UniProt O75015 20-208)", "T8 construct": "also called human FcγRIIIb; hFcγRIIIb", "T8 chain": "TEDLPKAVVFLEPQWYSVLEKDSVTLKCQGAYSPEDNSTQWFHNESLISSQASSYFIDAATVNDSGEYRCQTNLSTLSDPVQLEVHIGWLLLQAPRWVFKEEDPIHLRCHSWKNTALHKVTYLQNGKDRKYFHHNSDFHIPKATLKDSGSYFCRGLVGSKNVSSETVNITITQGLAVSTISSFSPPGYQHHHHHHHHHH", "experiment": "SPR (Biacore T200); receptor immobilized directly on CM5 chip, antibody as analyte at 4.7 µM"}, "[10]": {"target": "T9, Recombinant Human Fc gamma RIIB/C (CD32b/c) Protein (R&D Systems), His-tagged (human, UniProt P31994 46-217)", "T9 construct": "also called human FcγRIIb/c; hFcγRIIb/c", "T9 sequence": "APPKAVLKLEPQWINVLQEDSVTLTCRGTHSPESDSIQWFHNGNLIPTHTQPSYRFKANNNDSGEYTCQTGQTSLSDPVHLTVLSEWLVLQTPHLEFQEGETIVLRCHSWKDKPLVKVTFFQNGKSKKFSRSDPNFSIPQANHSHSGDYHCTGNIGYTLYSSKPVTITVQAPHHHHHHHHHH", "experiment": "SPR (Biacore T200); receptor immobilized directly on CM5 chip, antibody as analyte at 4.7 µM"}, "[11]": {"target": "T5, Recombinant Human Fc gamma RIIIA/CD16a …", "experiment": "SPR (Biacore T200); receptor immobilized directly on CM5 chip, antibody as analyte at 4.7 µM", "remark": "listed apart in the source"}, "[12]": {"target": "T6, Recombinant Human Fc gamma RIIIA/CD16a …", "experiment": "SPR (Biacore T200); receptor immobilized directly on CM5 chip, antibody as analyte at 4.7 µM", "remark": "listed apart in the source"}, "[13]": {"target": "T7, Recombinant Human Fc gamma RIIA/CD32a …", "experiment": "SPR (Biacore T200); receptor immobilized directly on CM5 chip, antibody as analyte at 4.7 µM", "remark": "listed apart in the source"}, "[14]": {"target": "T8, Recombinant Human Fc gamma RIIIB/CD16b …", "experiment": "SPR (Biacore T200); receptor immobilized directly on CM5 chip, antibody as analyte at 4.7 µM"}, "[15]": {"target": "T9, Recombinant Human Fc gamma RIIB/C …", "experiment": "SPR (Biacore T200); receptor immobilized directly on CM5 chip, antibody as analyte at 4.7 µM", "remark": "listed apart in the source"}, "[16]": {"target": "T10, Recombinant Cynomolgus Monkey Fc gamma RI/CD64 Protein, CF (R&D Systems), His-tagged (cynomolgus, UniProt P12314 11-288 (human entry))", "T10 construct": "also called cynomolgus FcγRI; cFcγRI", "T10 chain": "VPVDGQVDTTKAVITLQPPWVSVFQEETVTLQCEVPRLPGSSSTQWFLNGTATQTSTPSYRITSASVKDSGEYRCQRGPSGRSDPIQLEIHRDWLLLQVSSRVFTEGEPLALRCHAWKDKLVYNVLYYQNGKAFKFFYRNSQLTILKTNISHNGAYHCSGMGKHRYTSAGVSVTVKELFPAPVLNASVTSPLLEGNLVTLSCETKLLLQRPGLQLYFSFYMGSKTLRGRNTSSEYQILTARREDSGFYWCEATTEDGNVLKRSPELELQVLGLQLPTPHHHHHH", "experiment": "SPR (Biacore T200); His-tagged receptor captured on anti-His antibody chip, antibody as analyte at 4.7 µM"}, "[17]": {"target": "T2, Recombinant Cynomolgus Fc gamma RIIB …", "experiment": "SPR (Biacore T200); receptor immobilized directly on CM5 chip, antibody as analyte at 4.7 µM"}, "[18]": {"target": "T3, Recombinant Cynomolgus Fc gamma …", "experiment": "SPR (Biacore T200); receptor immobilized directly on CM5 chip, antibody as analyte at 4.7 µM"}, "[19]": {"target": "T4, Recombinant Cynomolgus Fc gamma …", "experiment": "SPR (Biacore T200); receptor immobilized directly on CM5 chip, antibody as analyte at 4.7 µM"}, "[20]": {"target": "T8, Recombinant Human Fc gamma RIIIB/CD16b …", "experiment": "SPR (Biacore T200); receptor immobilized directly on CM5 chip, antibody as analyte at 4.7 µM"}}, "note": "Read-outs that look alike come from different tables or passages of the source.", "data": [{"binder": "L234A/L235A/D265G/P329A (LALA-DGPA) variant of IgG1 WT of the anti-EGFR antibody panitumumab (antibody, Positions are EU numbers) heavy: QVQLQESGPGLVKPSETLSLTCTVSGGSVSSGDYYWTWIRQSPGKGLEWIGHIYYSGNTNYNPSLKSRLTISIDTSKTQFSLKLSSVTAADTAIYYCVRDRVTGAFDIWGQGTMVTVSSASTKGPSVFPLAPSSKSTSGGTAALGCLVKDYFPEPVTVSWNSGALTSGVHTFPAVLQSSGLYSLSSVVTVPSSSLGTQTYICNVNHKPSNTKVDKRVEPKSCDKTHTCPPCPAPEAAGGPSVFLFPPKPKDTLMISRTPEVTCVVVGVSHEDPEVKFNWYVDGVEVHNAKTKPREEQYNSTYRVVSVLTVLHQDWLNGKEYKCKVSNKALAAPIEKTISKAKGQPREPQVYTLPPSREEMTKNQVSLTCLVKGFYPSDIAVEWESNGQPENNYKTTPPVLDSDGSFFLYSKLTVDKSRWQQGNVFSCSVMHEALHNHYTQKSLSLSPGK light: not shown", "values": [{"measurement": "koff", "setting": "[1]", "result": 2.3, "unit": "s⁻¹"}, {"measurement": "Kd", "setting": "[2]", "result": 5, "unit": "nM"}]}, {"binder": "L234A/L235A/D265N (LALA-DN) variant of IgG1 WT of the anti-EGFR antibody panitumumab (antibody, Mutations in both CH2 domains; positions are EU numbers) heavy: QVQLQESGPGLVKPSETLSLTCTVSGGSVSSGDYYWTWIRQSPGKGLEWIGHIYYSGNTNYNPSLKSRLTISIDTSKTQFSLKLSSVTAADTAIYYCVRDRVTGAFDIWGQGTMVTVSSASTKGPSVFPLAPSSKSTSGGTAALGCLVKDYFPEPVTVSWNSGALTSGVHTFPAVLQSSGLYSLSSVVTVPSSSLGTQTYICNVNHKPSNTKVDKRVEPKSCDKTHTCPPCPAPEAAGGPSVFLFPPKPKDTLMISRTPEVTCVVVNVSHEDPEVKFNWYVDGVEVHNAKTKPREEQYNSTYRVVSVLTVLHQDWLNGKEYKCKVSNKALPAPIEKTISKAKGQPREPQVYTLPPSREEMTKNQVSLTCLVKGFYPSDIAVEWESNGQPENNYKTTPPVLDSDGSFFLYSKLTVDKSRWQQGNVFSCSVMHEALHNHYTQKSLSLSPGK light: not shown", "values": [{"measurement": "binding response (RU)", "setting": "[3]", "result": 85, "unit": "RU"}, {"measurement": "binding response (RU)", "setting": "[4]", "result": 19, "unit": "RU"}, {"measurement": "binding response (RU)", "setting": "[5]", "result": 3.1, "unit": "RU"}, {"measurement": "binding response (RU)", "setting": "[6]", "result": -3.3, "unit": "RU"}, {"measurement": "binding response (RU)", "setting": "[7]", "result": -5, "unit": "RU"}, {"measurement": "binding response (RU)", "setting": "[8]", "result": 21, "unit": "RU"}, {"measurement": "binding response (RU)", "setting": "[9]", "result": -1, "unit": "RU"}, {"measurement": "binding response (RU)", "setting": "[10]", "result": 14, "unit": "RU"}]}, {"binder": "L234A/L235A/P329G (LALA-PG) variant of IgG1 WT of the anti-EGFR antibody panitumumab (antibody, Mutations in both CH2 domains; positions are EU numbers) heavy: QVQLQESGPGLVKPSETLSLTCTVSGGSVSSGDYYWTWIRQSPGKGLEWIGHIYYSGNTNYNPSLKSRLTISIDTSKTQFSLKLSSVTAADTAIYYCVRDRVTGAFDIWGQGTMVTVSSASTKGPSVFPLAPSSKSTSGGTAALGCLVKDYFPEPVTVSWNSGALTSGVHTFPAVLQSSGLYSLSSVVTVPSSSLGTQTYICNVNHKPSNTKVDKRVEPKSCDKTHTCPPCPAPEAAGGPSVFLFPPKPKDTLMISRTPEVTCVVVDVSHEDPEVKFNWYVDGVEVHNAKTKPREEQYNSTYRVVSVLTVLHQDWLNGKEYKCKVSNKALGAPIEKTISKAKGQPREPQVYTLPPSREEMTKNQVSLTCLVKGFYPSDIAVEWESNGQPENNYKTTPPVLDSDGSFFLYSKLTVDKSRWQQGNVFSCSVMHEALHNHYTQKSLSLSPGK light: not shown", "values": [{"measurement": "binding response (RU)", "setting": "[11]", "result": -0.7, "unit": "RU"}, {"measurement": "binding response (RU)", "setting": "[12]", "result": -0.8, "unit": "RU"}, {"measurement": "binding response (RU)", "setting": "[13]", "result": 19, "unit": "RU"}, {"measurement": "binding response (RU)", "setting": "[14]", "result": -0.4, "unit": "RU"}, {"measurement": "binding response (RU)", "setting": "[15]", "result": 19, "unit": "RU"}, {"measurement": "binding response (RU)", "setting": "[16]", "result": 1300, "unit": "RU"}, {"measurement": "binding response (RU)", "setting": "[17]", "result": 110, "unit": "RU"}, {"measurement": "binding response (RU)", "setting": "[18]", "result": 23, "unit": "RU"}, {"measurement": "binding response (RU)", "setting": "[19]", "result": 10, "unit": "RU"}]}, {"binder": "LALA variant of the anti-LPS antibody O11-1111 (IgG1) (antibody, LALA substitutions in EU numbering; also called Anti-LPS Antibody LALA) heavy: not shown light: DIVMTQSPDSLAVSLGERATINCKASENVGNSVSWYQQKPGQPPKLLIYGASNRYTGVPDRFSGSGSGTDFTLTISSLQAEDVAVYYCGQSYSYPYTFGQGTKVEIKRTVAAPSVFIFPPSDEQLKSGTASVVCLLNNFYPREAKVQWKVDNALQSGNSQESVTEQDSKDSTYSLSSTLTLSKADYEKHKVYACEVTHQGLSSPVTKSFNRGEC", "values": [{"measurement": "binding response (RU)", "setting": "[20]", "result": -1.4, "unit": "RU"}]}]}
